Reference: the supplement of paper PMC5998384

Key:
HeLa Kyoto [1] = assay: melting temperature (median over replicates), in situ; higher = more thermally stable
HeLa Kyoto [2] = assay: thermal stability score vs G1/S (z-score of summed log2 fold changes over temperatures); higher = more thermally stable than in G1/S
HeLa Kyoto [3] = assay: solubility change mitosis vs G1/S (difference of NP-40 vs SDS log2 ratios) (log2 ratio difference); higher = more soluble in mitosis
HeLa Kyoto [4] = assay: solubility in G1/S (NP-40 vs SDS abundance) (log2 ratio); higher = more soluble; conditions: cell cycle stage: G1/S
[5] = cell cycle stage: early G1 (4.5 h after nocodazole release)
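Wherever melting temperature (median over replicates), in situ is given: HeLa Kyoto cells synchronized by double thymidine or nocodazole block, proteins quantified by TMT10plex mass spectrometry, three independent biological replicates.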
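Wherever solubility change mitosis vs G1/S (difference of NP-40 vs SDS log2 ratios) is given: synchronized HeLa Kyoto cells (double thymidine block for G1/S, nocodazole release for mitosis), protein amounts in NP-40 versus SDS lysates quantified by mass spectrometry, three biological replicates.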
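Wherever solubility in G1/S (NP-40 vs SDS abundance) is given: HeLa Kyoto cells arrested at G1/S by double thymidine block, proteins quantified by TMT10plex mass spectrometry in mild NP-40 versus SDS extracts, three biological replicates.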
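Wherever thermal stability score vs G1/S (z-score of summed log2 fold changes over temperatures) is given: synchronized HeLa Kyoto cells, proteins quantified by TMT10plex mass spectrometry, three biological replicates, mitosis taken 0.5 h after nocodazole release, G1/S directly after double thymidine block.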

MAENTEGDLNSNLLHAPYHTGDPQLDTAIGQWLRWDKNPKTKEQIENLLRNGMNKELRDRLCCRMTFGTAGLRSAMGAGFCYINDLTVIQSTQGMYKYLERCFSDFKQRGFVVGYDTRGQVTSSCSSQRLAKLTAAVLLAKDVPVYLFSRYVPTPFVPYAVQKLKAVAGVMITASHNRKEDNGYKVYWETGAQITSPHDKEILKCIEECVEPWNGSWNDNLVDTSPLKRDPLQDICRRYMEDLKKICFYRELNSKTTLKFVHTSFHGVGHDYVQLAFKVFGFKPPIPVPEQKDPDPDFSTVKCPNPEEGESVLELSLRLAEKENARVVLATDPDADRLAAAELQENGCWKVFTGNELAALFGWWMFDCWKKNKSRNADVKNVYMLATTVSSKILKAIALKEGFHFEETLPGFKWIGSRIIDLLENGKEVLFAFEESIGFLCGTSVLDKDGVSAAVVVAEMASYLETMNITLKQQLVKVYEKYGYHISKTSYFLCYEPPTIKSIFERLRNFDSPKEYPKFCGTFAILHVRDVTTGYDSSQPNKKSVLPVSKNSQMITFTFQNGCVATLRTSGTEPKIKYYAEMCASPDQSDTALLEEELKKLIDALIENFLQPSKNGLIWRSV [PGM2L1]
melting temperature (HeLa Kyoto [1]; cell cycle stage: G1/S): 53.4 °C
melting temperature (HeLa Kyoto [1]; cell cycle stage: mitosis): 54.2 °C
thermal stability score (HeLa Kyoto [2]; [5]): 0.325
thermal stability score (HeLa Kyoto [2]; cell cycle stage: mitosis): -0.133
solubility change mitosis (log2) (HeLa Kyoto [3]): -0.173
solubility in G1/S (log2) (HeLa Kyoto [4]): 0.0482

MFPFGPHSPGGDGSAGAGAEEPTPHEGQAAATGPPSPLHPGADATHPPPPARSPRRPGAPSLSPAPRSGELGLPGAPESSTASAPGEPSPPSPPCRRPGPDCRAKSRGRHGLGAGLGGPGARLFGWLKERSLGRGLFVDPARDNFRTMTSLYGSIHPADSVYLSTRTHGAVFNLEYSPDGSVLTVACEQTEVLLFDPISSKHIKTLSEAHEDCVNNIRFLDNRLFATCSDDTTIALWDLRKLNTKVCTLHGHTSWVKNIEYDTNTRLLVTSGFDGNVIIWDTNRYTEDGCPHKKFFHTRFLMRMRLTPDCSKMLISTSSGYLLILHDLDLTKSLEVGSYPILRARRTTSSSDLTTSSSSSGPRVSGSPCHHSDSNSSEKHMSRASQREGVSPRNSLEVVTPEVLGESDHGNCITSLQLHPKGWATLLRCSSNSDDEECTCVYEFQEGAPVRPVSPRCSLRLTHYIEEANVGRGYIKELCFSPDGRMISSPHGYGIRLLGFDKQCSELVDCLPKEASPLRVIRSLYSHNDVVLTTKFSPTHCQIASGCLSGRVSLYQPKF [DCAF10]
melting temperature (HeLa Kyoto [1]; cell cycle stage: G1/S): 53.7 °C
melting temperature (HeLa Kyoto [1]; cell cycle stage: mitosis): 51.2 °C
thermal stability score (HeLa Kyoto [2]; [5]): -2.74
thermal stability score (HeLa Kyoto [2]; cell cycle stage: mitosis): -3.62
solubility change mitosis (log2) (HeLa Kyoto [3]): -0.0652
solubility in G1/S (log2) (HeLa Kyoto [4]): -0.0366

MATSRYEPVAEIGVGAYGTVYKARDPHSGHFVALKSVRVPNGGGGGGGLPISTVREVALLRRLEAFEHPNVVRLMDVCATSRTDREIKVTLVFEHVDQDLRTYLDKAPPPGLPAETIKDLMRQFLRGLDFLHANCIVHRDLKPENILVTSGGTVKLADFGLARIYSYQMALTPVVVTLWYRAPEVLLQSTYATPVDMWSVGCIFAEMFRRKPLFCGNSEADQLGKIFDLIGLPPEDDWPRDVSLPRGAFPPRGPRPVQSVVPEMEESGAQLLLEMLTFNPHKRISAFRALQHSYLHKDEGNPE [CDK4]
melting temperature (HeLa Kyoto [1]; cell cycle stage: G1/S): 52.7 °C
melting temperature (HeLa Kyoto [1]; cell cycle stage: mitosis): 52.4 °C
thermal stability score (HeLa Kyoto [2]; [5]): 0.0522
thermal stability score (HeLa Kyoto [2]; cell cycle stage: mitosis): -0.366
solubility change mitosis (log2) (HeLa Kyoto [3]): -0.121
solubility in G1/S (log2) (HeLa Kyoto [4]): 0.218

MSYDYHQNWGRDGGPRSSGGGYGGGPAGGHGGNRGSGGGGGGGGGGRGGRGRHPGHLKGREIGMWYAKKQGQKNKEAERQERAVVHMDERREEQIVQLLNSVQAKNDKESEAQISWFAPEDHGYGTEVSTKNTPCSENKLDIQEKKLINQEKKMFRIRNRSYIDRDSEYLLQENEPDGTLDQKLLEDLQKKKNDLRYIEMQHFREKLPSYGMQKELVNLIDNHQVTVISGETGCGKTTQVTQFILDNYIERGKGSACRIVCTQPRRISAISVAERVAAERAESCGSGNSTGYQIRLQSRLPRKQGSILYCTTGIILQWLQSDPYLSSVSHIVLDEIHERNLQSDVLMTVVKDLLNFRSDLKVILMSATLNAEKFSEYFGNCPMIHIPGFTFPVVEYLLEDVIEKIRYVPEQKEHRSQFKRGFMQGHVNRQEKEEKEAIYKERWPDYVRELRRRYSASTVDVIEMMEDDKVDLNLIVALIRYIVLEEEDGAILVFLPGWDNISTLHDLLMSQVMFKSDKFLIIPLHSLMPTVNQTQVFKRTPPGVRKIVIATNIAETSITIDDVVYVIDGGKIKETHFDTQNNISTMSAEWVSKANAKQRKGRAGRVQPGHCYHLYNGLRASLLDDYQLPEILRTPLEELCLQIKILRLGGIAYFLSRLMDPPSNEAVLLSIRHLMELNALDKQEELTPLGVHLARLPVEPHIGKMILFGALFCCLDPVLTIAASLSFKDPFVIPLGKEKIADARRKELAKDTRSDHLTVVNAFEGWEEARRRGFRYEKDYCWEYFLSSNTLQMLHNMKGQFAEHLLGAGFVSSRNPKDPESNINSDNEKIIKAVICAGLYPKVAKIRLNLGKKRKMVKVYTKTDGLVAVHPKSVNVEQTDFHYNWLIYHLKMRTSSIYLYDCTEVSPYCLLFFGGDISIQKDNDQETIAVDEWIVFQSPARIAHLVKELRKELDILLQEKIESPHPVDWNDTKSRDCAVLSAIIDLIKTQEKATPRNFPPRFQDGYYS [DHX36]
melting temperature (HeLa Kyoto [1]; cell cycle stage: G1/S): 50.8 °C
melting temperature (HeLa Kyoto [1]; cell cycle stage: mitosis): 51.5 °C
thermal stability score (HeLa Kyoto [2]; [5]): 0.36
thermal stability score (HeLa Kyoto [2]; cell cycle stage: mitosis): 0.349
solubility change mitosis (log2) (HeLa Kyoto [3]): -0.0322
solubility in G1/S (log2) (HeLa Kyoto [4]): -0.25

MGLPEPGPLRLLALLLLLLLLLLLQLQHLAAAAADPLLGGQGPAKDCEKDQFQCRNERCIPSVWRCDEDDDCLDHSDEDDCPKKTCADSDFTCDNGHCIHERWKCDGEEECPDGSDESEATCTKQVCPAEKLSCGPTSHKCVPASWRCDGEKDCEGGADEAGCATLCAPHEFQCGNRSCLAAVFVCDGDDDCGDGSDERGCADPACGPREFRCGGDGGGACIPERWVCDRQFDCEDRSDEAAELCGRPGPGATSAPAACATASQFACRSGECVHLGWRCDGDRDCKDKSDEADCPLGTCRGDEFQCGDGTCVLAIKHCNQEQDCPDGSDEAGCLQGLNECLHNNGGCSHICTDLKIGFECTCPAGFQLLDQKTCGDIDECKDPDACSQICVNYKGYFKCECYPGYEMDLLTKNCKAAAGKSPSLIFTNRHEVRRIDLVKRNYSRLIPMLKNVVALDVEVATNRIYWCDLSYRKIYSAYMDKASDPKEQEVLIDEQLHSPEGLAVDWVHKHIYWTDSGNKTISVATVDGGRRRTLFSRNLSEPRAIAVDPLRGFMYWSDWGDQAKIEKSGLNGVDRQTLVSDNIEWPNGITLDLLSQRLYWVDSKLHQLSSIDFSGGNRKTLISSTDFLSHPFGIAVFEDKVFWTDLENEAIFSANRLNGLEISILAENLNNPHDIVIFHELKQPRAPDACELSVQPNGGCEYLCLPAPQISSHSPKYTCACPDTMWLGPDMKRCYRAPQSTSTTTLASTMTRTVPATTRAPGTTVHRSTYQNHSTETPSLTAAVPSSVSVPRAPSISPSTLSPATSNHSQHYANEDSKMGSTVTAAVIGIIVPIVVIALLCMSGYLIWRNWKRKNTKSMNFDNPVYRKTTEEEDEDELHIGRTAQIGHVYPAAISSFDRPLWAEPCLGETREPEDPAPALKELFVLPGEPRSQLHQLPKNPLSELPVVKSKRVALSLEDDGLP [LRP8]
melting temperature (HeLa Kyoto [1]; cell cycle stage: G1/S): 55.6 °C
melting temperature (HeLa Kyoto [1]; cell cycle stage: mitosis): 56.7 °C
thermal stability score (HeLa Kyoto [2]; [5]): -3.43
thermal stability score (HeLa Kyoto [2]; cell cycle stage: mitosis): -3.53
solubility change mitosis (log2) (HeLa Kyoto [3]): -0.0602
solubility in G1/S (log2) (HeLa Kyoto [4]): 0.0581

MGDPERPEAAGLDQDERSSSDTNESEIKSNEEPLLRKSSRRFVIFPIQYPDIWKMYKQAQASFWTAEEVDLSKDLPHWNKLKADEKYFISHILAFFAASDGIVNENLVERFSQEVQVPEARCFYGFQILIENVHSEMYSLLIDTYIRDPKKREFLFNAIETMPYVKKKADWALRWIADRKSTFGERVVAFAAVEGVFFSGSFAAIFWLKKRGLMPGLTFSNELISRDEGLHCDFACLMFQYLVNKPSEERVREIIVDAVKIEQEFLTEALPVGLIGMNCILMKQYIEFVADRLLVELGFSKVFQAENPFDFMENISLEGKTNFFEKRVSEYQRFAVMAETTDNVFTLDADF [RRM2B]
melting temperature (HeLa Kyoto [1]; cell cycle stage: G1/S): 56.5 °C
melting temperature (HeLa Kyoto [1]; cell cycle stage: mitosis): 54.2 °C
thermal stability score (HeLa Kyoto [2]; [5]): -1.2
thermal stability score (HeLa Kyoto [2]; cell cycle stage: mitosis): 0.292
solubility change mitosis (log2) (HeLa Kyoto [3]): -0.132
solubility in G1/S (log2) (HeLa Kyoto [4]): 0.00384

MKPSGEDQAALAAGPWEECFQAAVQLALRAGQIIRKALTEEKRVSTKTSAADLVTETDHLVEDLIISELRERFPSHRFIAEEAAASGAKCVLTHSPTWIIDPIDGTCNFVHRFPTVAVSIGFAVRQELEFGVIYHCTEERLYTGRRGRGAFCNGQRLRVSGETDLSKALVLTEIGPKRDPATLKLFLSNMERLLHAKAHGVRVIGSSTLALCHLASGAADAYYQFGLHCWDLAAATVIIREAGGIVIDTSGGPLDLMACRVVAASTREMAMLIAQALQTINYGRDDEK [IMPA2]
melting temperature (HeLa Kyoto [1]; cell cycle stage: G1/S): 58.2 °C
melting temperature (HeLa Kyoto [1]; cell cycle stage: mitosis): 60.1 °C
thermal stability score (HeLa Kyoto [2]; [5]): -0.528
thermal stability score (HeLa Kyoto [2]; cell cycle stage: mitosis): -0.16
solubility change mitosis (log2) (HeLa Kyoto [3]): -0.261
solubility in G1/S (log2) (HeLa Kyoto [4]): 0.109

FNDC3B
melting temperature (HeLa Kyoto [1]; cell cycle stage: G1/S): 47.9 °C
melting temperature (HeLa Kyoto [1]; cell cycle stage: mitosis): 50.5 °C
thermal stability score (HeLa Kyoto [2]; [5]): 1.73
thermal stability score (HeLa Kyoto [2]; cell cycle stage: mitosis): 3.59
solubility change mitosis (log2) (HeLa Kyoto [3]): 0.0529
solubility in G1/S (log2) (HeLa Kyoto [4]): -0.0341

MAVAPRLFGGLCFRFRDQNPEVAVEGRLPISHSCVGCRRERTAMATVAANPAAAAAAVAAAAAVTEDREPQHEELPGLDSQWRQIENGESGRERPLRAGESWFLVEKHWYKQWEAYVQGGDQDSSTFPGCINNATLFQDEINWRLKEGLVEGEDYVLLPAAAWHYLVSWYGLEHGQPPIERKVIELPNIQKVEVYPVELLLVRHNDLGKSHTVQFSHTDSIGLVLRTARERFLVEPQEDTRLWAKNSEGSLDRLYDTHITVLDAALETGQLIIMETRKKDGTWPSAQLHVMNNNMSEEDEDFKGQPGICGLTNLGNTCFMNSALQCLSNVPQLTEYFLNNCYLEELNFRNPLGMKGEIAEAYADLVKQAWSGHHRSIVPHVFKNKVGHFASQFLGYQQHDSQELLSFLLDGLHEDLNRVKKKEYVELCDAAGRPDQEVAQEAWQNHKRRNDSVIVDTFHGLFKSTLVCPDCGNVSVTFDPFCYLSVPLPISHKRVLEVFFIPMDPRRKPEQHRLVVPKKGKISDLCVALSKHTGISPERMMVADVFSHRFYKLYQLEEPLSSILDRDDIFVYEVSGRIEAIEGSREDIVVPVYLRERTPARDYNNSYYGLMLFGHPLLVSVPRDRFTWEGLYNVLMYRLSRYVTKPNSDDEDDGDEKEDDEEDKDDVPGPSTGGSLRDPEPEQAGPSSGVTNRCPFLLDNCLGTSQWPPRRRRKQLFTLQTVNSNGTSDRTTSPEEVHAQPYIAIDWEPEMKKRYYDEVEAEGYVKHDCVGYVMKKAPVRLQECIELFTTVETLEKENPWYCPSCKQHQLATKKLDLWMLPEILIIHLKRFSYTKFSREKLDTLVEFPIRDLDFSEFVIQPQNESNPELYKYDLIAVSNHYGGMRDGHYTTFACNKDSGQWHYFDDNSVSPVNENQIESKAAYVLFYQRQDVARRLLSPAGSSGAPASPACSSPPSSEFMDVN [USP11]
melting temperature (HeLa Kyoto [1]; cell cycle stage: G1/S): 47.3 °C
melting temperature (HeLa Kyoto [1]; cell cycle stage: mitosis): 48.1 °C
thermal stability score (HeLa Kyoto [2]; [5]): 2.48
thermal stability score (HeLa Kyoto [2]; cell cycle stage: mitosis): 4.39
solubility change mitosis (log2) (HeLa Kyoto [3]): -0.0102
solubility in G1/S (log2) (HeLa Kyoto [4]): -0.0353
